According to paper PMC10159993:

Columns and labels:
[1] = target: H2AK119-biotinylated 185 bp nucleosome; assay: FRET or BRET
KDM2A(2–685) (human) = KDM2A(2–685) (human) (UniProt Q9Y2K7); assay: FRET or BRET

“KDM2A(2–685) K99E/R105E/R128E/R152E (from UniProt Q9Y2K7 2-685) (domain or fragment)” showed a fold reduction of binding affinity against wild-type KDM2A [1] of 20 fold.
“KDM2A(2–685) R152E (from UniProt Q9Y2K7 2-685) (domain or fragment)” showed a fold reduction of binding affinity against wild-type KDM2A [1] of 4 fold.
Substance “unmodified wild-type 147 bp nucleosome (complex)” has a ratio of IC50 (147 bp over 185 bp nucleosome as competitor) (KDM2A(2–685) (human)) of 10 fold.
